Results: US12661385B2, “Modulation of mTORCI activity and autophagy via CIB2-RHEB interaction” (University of Maryland, Baltimore, priority 2018, dated 2026)

What was measured:
[1] = test system: RPE-J cells; assay: LC3-II induction / LC3 flux immunoblots in transfected RPE-J cells; assay type: cell-based, rat; settings: RPE-J cells overexpressing CIB2 vs GFP, in the presence of bafilomycin A1, 24 hrs
Description: FIG. 13. Loss of CIB2, specifically in the RPE, leads to LC3 flux deficits, while CIB2 overexpression, in vitro, restores LC3 flux._a-d, RPE whole mounts treated with DMSO or 50 μM bafilomycin A1 (Baf-A1) overnight show reduced levels of LC3-II, quantified in panels b and d, in Cib2 deficient mice as compared to WT controls, indicating autophagy deficits. Ratio for WT or RPE-Cre+; Cib2^+/+ was set to 1. e. Representative immunoblots for LC3-II induction in transiently transfected (GFP or CIB2-IRES-GFP) RPE-J cells treated with DMSO, 50 μM bafilomycin-A1 (Baf-A1), or 100 nM rapamycin (Rapa) for 24 hrs. f. Quantification of LC3 flux (ratio of LC3-II/actin in Baf-A1 to DMSO treated samples) or LC3B-II/actin ratio up on rapamycin treatment for immunoblots shown in (e). […]
Complementary to the findings of Cib2 mutant mice, over-expressing CIB2 in RPE-J cells increased LAMP-1 and ATG5-ATG12 complex proteins levels (FIG. 12c-d). […] To test this idea, we assessed LC3-II flux. LC3-I is a cytosolic protein which when lipidated with a phosphatidylethanolamine adduct (LC3-II form) localizes to the growing auto/phagosome membrane, and thus can be used as a reliable readout for the dynamic autophagic process (Valapala et al., Autophagy 10, 480-496 (2014); Kim et al., Noncanonical Autophagy Promotes the Visual Cycle. Cell 154, 365-376 (2013); Klionsky et al., Autophagy 12, 1-222 (2016)). […]

[2] = test system: mTORC1; assay: Phosphoprotein immunoblots of LAM-621 cells overexpressing CIB2, mTORC1 targets; assay type: cell-based, human; settings: LAM-621 cells overexpressing increasing amounts of CIB2

B1: CIB2: calcium and integrin binding protein 2, over-expressed in cells from plasmid constructs; SEQ ID NO:1 (human), SEQ ID NO:2 (mouse) (protein)
chain: MGNKQTIFTEEQLDNYQDCTFFNKKDILKLHARFYELAPNLVPMDYRKSPIVHVPMSLIIQMPELRENPFKERIVEAFSEDGEGNLTFNDFVDMFSVLCESAPRELKANYAFKIYDFNTDNFICKEDLEMTLARLTKSELEEDEVVLVCDKVIEEADLDGDGKLGFADFEDMIAKAPDFLSTFHIRI
modifications: left off: large carriers
- Relative LC3 flux (ratio of LC3-II/actin in Baf-A1 to DMSO treated samples) [1]: markedly increased
- Phosphorylated 4E-BP-1 [2]: decreasing amounts
- Phosphorylated ULK1 [2]: decreasing amounts
